This series concerns the molecule itself. Briefly: cryo-EM structure; blot-and-plunge, dGTPase 3 mg/mL on UltrAuFoil R1.2/1.3 Au300; single-particle analysis, D3 symmetry.

B1: Escherichia coli dGTP Triphosphohydrolase (enzyme, UniProt P15723 1-505, looked up)
chain: MAQIDFRKKINWHRRYRSPQGVKTEHEILRIFESDRGRIINSPAIRRLQQKTQVFPLERNAAVRTRLTHSMEVQQVGRYIAKEILSRLKELKLLEAYGLDELTGPFESIVEMSCLMHDIGNPPFGHFGEAAINDWFRQRLHPEDAESQPLTDDRCSVAALRLRDGEEPLNELRRKIRQDLCHFEGNAQGIRLVHTLMRMNLTWAQVGGILKYTRPAWWRGETPETHHYLMKKPGYYLSEEAYIARLRKELNLALYSRFPLTWIMEAADDISYCVADLEDAVEKRIFTVEQLYHHLHEAWGQHEKGSLFSLVVENAWEKSRSNSLSRSTEDQFFMYLRVNTLNKLVPYAAQRFIDNLPAIFAGTFNHALLEDASECSDLLKLYKNVAVKHVFSHPDVERLELQGYRVISGLLEIYRPLLSLSLSDFTELVEKERVKRFPIESRLFHKLSTRHRLAYVEAVSKLPSDSPEFPLWEYYYRCRLLQDYISGMTDLYAWDEYRRLMAVEQ
notes: also called dGTPase; E. coli dGTPase
On to B1, for which the binding result is on record as “binds”.

The values are drawn from paper doi:10.1101/2025.07.24.666634 (bioRxiv, 2025).
